Experimental data as given in patent publication US20140212436A1.

Legend:
Assay in all cases: Biacore
[1] = molecular target: recombinant human FcγRIIb protein (human) (UniProt P31994)
FcγRIIaR (human) = FcγRIIaR (human) (UniProt P12318)
human FcγRI (human) = human FcγRI (human) (UniProt P12314)
human FcγRI (human), sequence (P12314 16-288 limits assumed): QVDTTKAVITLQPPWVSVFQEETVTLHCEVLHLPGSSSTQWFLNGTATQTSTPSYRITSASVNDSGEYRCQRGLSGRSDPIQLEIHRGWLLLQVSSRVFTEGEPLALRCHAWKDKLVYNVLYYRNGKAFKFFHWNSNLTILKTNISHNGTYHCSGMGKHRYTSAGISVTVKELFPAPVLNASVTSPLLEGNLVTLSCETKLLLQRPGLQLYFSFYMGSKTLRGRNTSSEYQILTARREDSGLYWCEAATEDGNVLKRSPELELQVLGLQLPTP

FcγRIIaR (human), sequence (P12318 34-217 H167R limits assumed): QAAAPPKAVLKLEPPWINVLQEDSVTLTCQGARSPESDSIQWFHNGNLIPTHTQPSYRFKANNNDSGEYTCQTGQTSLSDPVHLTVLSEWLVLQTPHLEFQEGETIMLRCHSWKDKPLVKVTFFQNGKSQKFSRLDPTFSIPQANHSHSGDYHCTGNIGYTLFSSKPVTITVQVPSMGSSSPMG
recombinant human FcγRIIb protein (human), sequence (P31994 46-217 limits assumed): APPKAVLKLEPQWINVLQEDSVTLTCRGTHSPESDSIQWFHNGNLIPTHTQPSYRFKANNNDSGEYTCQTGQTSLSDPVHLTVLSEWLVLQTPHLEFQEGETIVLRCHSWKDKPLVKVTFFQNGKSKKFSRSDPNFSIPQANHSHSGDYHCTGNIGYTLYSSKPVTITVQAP

Row | Fold [1] | Kd [1] [µM] | Fold (FcγRIIaR (human)) | Kd (FcγRIIaR (human)) [µM] | Fold (human FcγRI (human)) | Kd (human FcγRI (human)) [µM] | Substance
1 | 0.843 | 1.74 | 0.609 | 1.41 | 0.0279 | 0.0118 | A327N (antibody)
2 | 19.8 | 0.0742 | 3.27 | 0.263 | 0.0355 | 0.00927 | G236N/S267E (antibody)
3 | 0.0147 | 100 | 0.00859 | 100 | – | – | L234K (antibody)
4 | 0.0644 | 22.8 | 0.0141 | 60.7 | – | – | L234P (antibody)
5 | 11.4 | 0.129 | 5.69 | 0.151 | – | – | L234W/G236D/S239E/S267E (antibody)
6 | 0.55 | 2.67 | 0.333 | 2.58 | – | – | L235E (antibody)
7 | 0.00585 | 251 | 0.122 | 7.01 | – | – | L235P (antibody)
8 | 0.0147 | 100 | 0.00859 | 100 | – | – | L235S (antibody)
9 | 0.147 | 10 | 0.0859 | 10 | – | – | P329E (antibody)
10 | 5.17 | 0.284 | 4.64 | 0.185 | – | – | S267E/L328H (antibody)

The remaining lines, values behind:

Row | Substance | Fold [1] | Kd [1] [µM] | Fold (FcγRIIaR (human)) | Kd (FcγRIIaR (human)) [µM] | Fold (human FcγRI (human)) | Kd (human FcγRI (human)) [µM]
11 | G237A (antibody) | 0.191 | 7.68 | 0.704 | 1.22 | 0.0108 | 0.0305
12 | G237D/S267E (antibody) | 17 | 0.0861 | 13.6 | 0.0631 | 0.0874 | 0.00377
13 | L234G (antibody) | 0.147 | 10 | 0.0859 | 10 | – | –
14 | L234I (antibody) | 0.108 | 13.6 | 0.0554 | 15.5 | – | –
15 | L234Q (antibody) | 0.147 | 10 | 0.0372 | 23.1 | – | –
16 | L234S (antibody) | 0.192 | 7.64 | 0.693 | 1.24 | – | –
17 | L234V (antibody) | 0.456 | 3.22 | 0.134 | 6.42 | – | –
18 | L234W/S239E/S267E (antibody) | 42.3 | 0.0347 | 98.5 | 0.00872 | – | –
19 | L234Y (antibody) | 0.0237 | 61.9 | 0.0511 | 16.8 | – | –
20 | L235H (antibody) | 0.734 | 2 | 0.756 | 1.14 | – | –
21 | L235N (antibody) | 0.147 | 10 | 0.0356 | 24.1 | – | –
22 | L235R (antibody) | 5.58 | 0.263 | 1.02 | 0.838 | – | –
23 | L235T/S267E (antibody) | 2.37 | 0.619 | 3.06 | 0.281 | – | –
24 | L235Y/G236D/S267E (antibody) | 25 | 0.0587 | 9.67 | 0.0888 | – | –
25 | S239N (antibody) | 1.45 | 1.01 | 0.867 | 0.99 | – | –
26 | S239Q (antibody) | 0.729 | 2.01 | 0.853 | 1.01 | – | –
27 | S267E/L328I (antibody) | 53.4 | 0.0275 | 74 | 0.0116 | – | –
28 | S267E/N325L (antibody) | 31.5 | 0.0466 | 41.5 | 0.0207 | – | –
29 | S298D (antibody) | 0.797 | 1.84 | 1.45 | 0.592 | – | –
30 | V266D (antibody) | 0.147 | 10 | 0.704 | 1.22 | – | –
